In publication PMC2924388, “Conformational Adaptation of Asian Macaque TRIMCyp Directs Lineage Specific Antiviral Activity” (PLoS Pathogens, 2010):

Experiments:
[1] = molecular target: T1, CypA domain of Macaca fascicularis TRIMCyp2 (Mafa TRIMCyp2) (Macaca fascicularis); assay: ITC; MicroCal ITC200; cyclophilin (typical concentration 1.4 mM) in the syringe, capsid (typical concentration 120 µM) in the cell; 50 mM KPO4 pH 7.4, 100 mM NaCl, 1 mM DTT; 15°C; one-state model; conditions: both partners purified
T1 construct: Cyp 54, 66, 69 and 143 are TRIMCyp 357, 369, 372 and 446. numbers count on: CypA; Natural allele; also called Mafa TCyp2; Mafa Cyp; source: E. coli BL21 (DE3), purified (Ni-NTA, gel filtration)

[2] = molecular target: T2, CypA domain of Mafa TRIMCyp2 with Cyp K143E (K446E in TRIMCyp) (Macaca fascicularis); assay: as above; conditions: both partners purified
T2 construct: As m1 but with glutamate at Cyp 143 (the residue of CypA and of Mamu TRIMCyp); also called Mafa TCyp2 K143E; K143E mutant; source: E. coli BL21 (DE3), purified (Ni-NTA, gel filtration), as per the wild-type protein

B1: FIV capsid N-terminal domain (domain or fragment)
chain: PIQTVNGVPQYVALDPKMVSIFMEKAREGLGGEEVQLWFTAFSANLTPTDMATLIMAAPGCAADKEILDESLKQLTAEYDRTHPPDAPRPLPYFTAAEIMGIGLTQEQQAEARFAPARMQCRAWYLEALGKLAAIKAKS
modifications: Unmodified wild-type domain. Strain and limits are not printed: the Petaluma isolate is assumed. The start is the capsid p24 N-terminus (136); the end is set by homology to HIV-1 CA-N 1-146 (pdb 2X83)
**Q.** Which Kd [1] does the source give for B1 here?
**A.** 27 µM

**Q.** And the Kd [2]?
**A.** 15 µM
